Publication PMC8322138, “BRCA2 binding through a cryptic repeated motif to HSF2BP oligomers does not impact meiotic recombination” (Nature Communications, 2021)
Numbering of substitutions follows the chain as printed. Names and notes keep the numbering of the source. Values joined by “and” are separate entries in the source; they are usually repeats but may differ in a detail not shown here. Identical values can stand only once. Blank lines part the entries; values can stand above or below the molecule they belong to.

Assays:
BRCA2 (Flag-F9) = assay: Co-immunoprecipitation of GFP-HSF2BP variants with Flag-BRCA2 F9; assay type: cell-based, human; conditions: transient HEK293T / stable HeLa, anti-GFP beads, immunoblot
Excerpt: Expression constructs for producing point mutation and truncation variants of HS2BP and BRCA2 in human cells were engineered as described before[16] in the PiggyBac vectors by Gibson assembly. For transient expression into HEK293T cells plasmid DNA was transfected using calcium precipitation method or PEI transfection. For stable integration into HeLa cells, PiggyBac expression vectors were co-lipofected together with PiggyBac transposase plasmid (hyPBase[45]) with Lipofectamine 3000 (Thermo Fisher).
Cells were washed twice in ice-cold PBS and lysed in situ in NETT buffer (100 mM NaCl, 50 mM Tris pH 7.5, 5 mM EDTA pH 8.0, 0.5% Triton-X100) supplemented immediately before use with protease inhibitor cocktail (Roche) and 0.4 mg/ml Pefabloc (Roche) (NETT++); 450 µl NETT++ buffer was used per 145 mm dish ES cells, 1 ml for HeLa and HEK293T. After 5–10 min, cells were scraped off and collected in 1.5 ml microcentrifuge tubes; lysis was continued for additional 20–30 min on ice, then mixtures were centrifuged (15 min, 4 °C, 14,000 × g) and the supernatant (input) was added to washed anti-GFP beads (Chromotek). Beads and lysates were incubated 2–4 h at 4 °C while rotating, washed three times in NETT++ buffer and bound proteins were eluted by boiling in 2x Sample buffer. Immunoblotting was performed following standard procedures with the following antibodies: anti-GFP mAb (Roche, #11814460001), anti-GFP pAb (Abcam #ab290 and Invitrogen #A11122), anti-RAD51[46], anti-BRCA2 mAb Ab1 OP-95 (Millipore #OP95), anti-BRCA2 (Abcam #27976), anti-Flag (M2 antibody, Sigma, F3165 and F1804). For quantitative immunoblotting fluorescently labeled secondary antibodies were used: anti-mouse CF680 (Sigma #SAB460199), anti-rabbit CF770 (Sigma #SAB460215); membranes were scanned using Odyssey CLx imaging system (LI-COR).

[1] = biological target: T1, armadillo domain of HSF2BP, from aa 122 to aa 334 (ARM) (human, UniProt O75031 122-334); assay: ITC; HSF2BP or ARM in the cell at 10-20 uM, BRCA2 fragment in the syringe at 40-100 uM; 293 K; 25 mM Tris pH 7.5, 250 mM NaCl, 5 mM beta-mercaptoethanol; two replicates; conditions: both partners purified
T1 construct: Free ARM is a dimer (SEC-MALS); four ARM with two F15X in the complex; A selenomethionine-labelled form was used for the deposited crystal structure; also called HSF2BP ARM; H3 (recombinant); source: E. coli BL21 DE3 Rosetta2, purified (HisTrap, TEV cleavage, SEC)
T1 sequence (looked up): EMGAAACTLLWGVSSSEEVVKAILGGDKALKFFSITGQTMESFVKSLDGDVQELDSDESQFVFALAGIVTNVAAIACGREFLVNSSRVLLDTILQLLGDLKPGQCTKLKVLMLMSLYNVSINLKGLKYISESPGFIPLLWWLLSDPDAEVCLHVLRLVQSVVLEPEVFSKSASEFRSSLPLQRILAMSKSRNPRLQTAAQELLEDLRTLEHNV

HSF2BP FL = biological target: T2, HSF2BP FL (Homo sapiens, UniProt O75031); assay: ITC of BRCA2 fragments with full-length HSF2BP; assay type: binding; conditions: discussion statement, read-out: affinity of BRCA2 for HSF2BP
T2 construct: Human full-length HSF2BP WT and R200T were expressed; 6xHis-TEV (N, cleaved yes); made in house; host or cells: E. coli BL21 DE3 Rosetta2
T2 sequence (O75031 1-334): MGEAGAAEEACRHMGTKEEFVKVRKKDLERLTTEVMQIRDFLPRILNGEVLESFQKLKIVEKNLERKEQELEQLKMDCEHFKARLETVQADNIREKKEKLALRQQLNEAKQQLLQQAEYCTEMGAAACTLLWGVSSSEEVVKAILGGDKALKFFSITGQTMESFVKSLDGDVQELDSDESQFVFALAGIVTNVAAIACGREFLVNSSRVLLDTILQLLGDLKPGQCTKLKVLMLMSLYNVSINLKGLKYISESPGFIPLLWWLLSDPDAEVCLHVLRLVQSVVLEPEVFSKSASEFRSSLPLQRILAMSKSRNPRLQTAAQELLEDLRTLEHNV
Excerpt: Human full-length HSF2BP WT and R200T were expressed using a pETM11 (6xHis-TEV) expression vector in E. coli BL21 DE3 Rosetta2 cells, and purified as previously reported (Brandsma et al., Cell Rep 2019). The armadillo domain of HSF2BP, from aa 122 to aa 334, which we will further name ARM, was similarly expressed using a pETM11 (6xHis-TEV) expression vector in BL21 DE3 Rosetta2 cells and purified as full-length HSF2BP.
Human BRCA2 fragment F0 was expressed using a pET-22b expression vector as a fusion protein comprising BRCA2 from aa 2213 to aa 2342 (including mutation C2332T to avoid oxidation problems), a TEV site, a GB1 and 6xHis tag, in E. coli BL21 DE3 Star cells. The BRCA2 gene was optimized for expression in bacteria and synthesized by Genscript. In addition, smaller BRCA2 fragments were produced using the same strategy: FNMR and F15X corresponding to aa 2252 to aa 2342 and aa 2291 to aa 2343, respectively. The smallest fragment F15X∆12, from aa 2312 to aa 2342, was synthesized by Genecust.
ITC experiments were performed using a high-precision VP-ITC instrument (GE Healthcare) at 293 K. To characterize the interactions between HSF2BP and BRCA2 fragments (WT, variants), the proteins were dialyzed against 25 mM Tris pH 7.5, 250 mM NaCl, 5 mM β-mercaptoethanol. The HSF2BP (or ARM domain) was in the sample cell at 10–20 μM and was titrated by BRCA2 fragments at 40–100 μM, using 10 μL injections with 210 s intervals between each injection. The first 2 μL injection was ignored in the final data analysis. The integration of the peaks corresponding to each injection. the correction for the baseline and the fit were performed using the Origin 7.0 software provided by the manufacturer, to obtain the stoichiometry (N), dissociation constant (Kd), and enthalpy of complex formation (ΔH) for each interaction. Two replicates were performed for each experiment.

B2: E201A: GFP-HSF2BP point mutant (protein)
chain: T2 sequence (O75031 1-334) with E201A
modifications: left off: GFP, end not stated, kept
notes: GFP-HSF2BP point mutant
binding to BRCA2 (co-precipitation) (BRCA2 (Flag-F9)): did not impact BRCA2 binding
binding to BRCA2 (co-precipitation) (BRCA2 (Flag-F9); listed as E201): do not decrease binding

B3: M235T: GFP-HSF2BP point mutant (protein)
chain: T2 sequence (O75031 1-334) with M235T
modifications: left off: GFP, end not stated, kept
notes: GFP-HSF2BP point mutant
binding to BRCA2 (co-precipitation) (BRCA2 (Flag-F9)): still weakly bound to BRCA2

B6: R200H: GFP-HSF2BP point mutant (protein)
chain: T2 sequence (O75031 1-334) with R200H
modifications: left off: GFP, end not stated, kept
notes: GFP-HSF2BP point mutant
binding to BRCA2 (co-precipitation) (BRCA2 (Flag-F9)): totally abolished binding

B7: G199D: GFP-HSF2BP point mutant (protein)
chain: T2 sequence (O75031 1-334) with G199D
modifications: left off: GFP, end not stated, kept
notes: GFP-HSF2BP point mutant
binding to BRCA2 (co-precipitation) (BRCA2 (Flag-F9)): abolished binding
binding to BRCA2 (co-precipitation) (BRCA2 (Flag-F9); listed as G199): failed to co-precipitate

B8: R200C: GFP-HSF2BP point mutant (protein)
chain: T2 sequence (O75031 1-334) with R200C
modifications: left off: GFP, end not stated, kept
notes: GFP-HSF2BP point mutant
binding to BRCA2 (co-precipitation) (BRCA2 (Flag-F9)): totally abolished binding

B9: N192R: GFP-HSF2BP point mutant (protein)
chain: T2 sequence (O75031 1-334) with N192R
modifications: left off: GFP, end not stated, kept
notes: GFP-HSF2BP point mutant
binding to BRCA2 (co-precipitation) (BRCA2 (Flag-F9)): totally abolished binding
binding to BRCA2 (co-precipitation) (BRCA2 (Flag-F9); listed as N192): failed to co-precipitate

B10: N239K: GFP-HSF2BP point mutant (protein)
chain: T2 sequence (O75031 1-334) with N239K
modifications: left off: GFP, end not stated, kept
notes: GFP-HSF2BP point mutant
binding to BRCA2 (co-precipitation) (BRCA2 (Flag-F9)): totally abolished binding
binding to BRCA2 (co-precipitation) (BRCA2 (Flag-F9); listed as N239): failed to co-precipitate

B11: Y238A: GFP-HSF2BP point mutant (protein)
chain: T2 sequence (O75031 1-334) with Y238A
modifications: left off: GFP, end not stated, kept
notes: GFP-HSF2BP point mutant
binding to BRCA2 (co-precipitation) (BRCA2 (Flag-F9)): totally abolished binding
binding to BRCA2 (co-precipitation) (BRCA2 (Flag-F9); listed as Y238): failed to co-precipitate

B12: R200E: GFP-HSF2BP point mutant (protein)
chain: T2 sequence (O75031 1-334) with R200E
modifications: left off: GFP, end not stated, kept
notes: GFP-HSF2BP point mutant
binding to BRCA2 (co-precipitation) (BRCA2 (Flag-F9)): totally abolished binding

Further lines, results first:

binding to BRCA2 (co-precipitation) (BRCA2 (Flag-F9)): totally abolished binding
binding to BRCA2 (co-precipitation) (BRCA2 (Flag-F9); listed as N243): failed to co-precipitate
B1: N243H: GFP-HSF2BP point mutant (protein)
chain: T2 sequence (O75031 1-334) with N243H
modifications: left off: GFP, end not stated, kept
notes: GFP-HSF2BP point mutant

binding to BRCA2 (co-precipitation) (BRCA2 (Flag-F9)): strongly decreased binding
B4: R277E: GFP-HSF2BP point mutant (protein)
chain: T2 sequence (O75031 1-334) with R277E
modifications: left off: GFP, end not stated, kept
notes: GFP-HSF2BP point mutant

binding to BRCA2 (co-precipitation) (BRCA2 (Flag-F9)): did not impact BRCA2 binding
binding to BRCA2 (co-precipitation) (BRCA2 (Flag-F9); listed as K245): do not decrease binding
B5: K245T: GFP-HSF2BP point mutant (protein)
chain: T2 sequence (O75031 1-334) with K245T
modifications: left off: GFP, end not stated, kept
notes: GFP-HSF2BP point mutant

Kd [1]: 7.8 nM and 13 nM
dH [1]: -9.6 kcal/mol and -9.4 kcal/mol
stoichiometry N [1]: 0.47 and 0.51
B13: Human BRCA2 fragment FNMR (S2252-Q2342) (domain or fragment, UniProt P51587 2252-2342, looked up)
chain: SLFTCPENEEMVLSNSRIGKRRGEPLILVGEPSIKRNLLNEFDRIIENQEKSLKASKSTPDGTIKDRRLFMHHVSLEPITTVPFRTTKERQ
notes: BRCA2, human, residues 2252-2342; produced by the same strategy as F0 (C2332T); C2332T is stated for F0 and 'our construct'; FNMR was made 'using the same strategy'; source: E. coli BL21 DE3 Star, purified (HisTrap, TEV cleavage, SEC); not shown: GB1, C-terminal, cleaved; His6, C-terminal, cleaved

Kd [1]: 10 nM and 9.4 nM
dH [1]: -10.2 kcal/mol and -9.2 kcal/mol
stoichiometry N [1]: 0.33 and 0.4
B14: Human BRCA2 fragment F15X (N2291-Q2342) (domain or fragment, UniProt P51587 2291-2342, looked up)
chain: NEFDRIIENQEKSLKASKSTPDGTIKDRRLFMHHVSLEPITTVPFRTTKERQ
notes: BRCA2, human, residues 2291-2342 (methods: aa 2291 to aa 2343); T2332 in the construct; The methods give aa 2291 to aa 2343, results and legend N2291-Q2342; A selenomethionine-labelled form was used for the deposited crystal structure; also called BRCA2 F15X; BRCA2 peptide; source: E. coli BL21 DE3 Star, purified (HisTrap, TEV cleavage, SEC); not shown: GB1, C-terminal, cleaved; His6, C-terminal, …

Kd (HSF2BP FL): 1 nM
B15: BRCA2: BRCA2 (fragment F0 measured by ITC) (protein)
chain: STYSKDSENYFETEAVEIAKAFMEDDELTDSKLPSHATHSLFTCPENEEMVLSNSRIGKRRGEPLILVGEPSIKRNLLNEFDRIIENQEKSLKASKSTPDGTIKDRRLFMHHVSLEPITTVPFRTTKERQ
